In general, Kd refers to the equilibrium constant for the complex coming apart. In general, koff refers to the first-order rate constant of dissociation. As a reminder, the kon is a measure of how fast the partners come together.

One assay addresses T1, Cynomolgus monkey BCMA (cynomolgus monkey).
T1 construct: Soluble analyte in SPR; also called cyBCMA; Cyno BCMA
As to the kind of experiment: SPR, IgG immobilised, cyno BCMA analyte. The method, boiled down:
(§1)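 Rate constants come from a 1:1 Langmuir model including mass transport, fitted to double-referenced sensorgrams. Analyte was human or cynomolgus BCMA in five rising concentrations up to 50 nM over amine-coupled IgG; runs were at 25° C or 37° C.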

The next assay deals with T2, Human BCMA (human, UniProt Q02223 1-54, limits assumed).
T2 construct: also called huBCMA; B-cell maturation antigen
T2 sequence (looked up): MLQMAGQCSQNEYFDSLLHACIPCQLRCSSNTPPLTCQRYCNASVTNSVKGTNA
The assay can be described thus: SPR, IgG immobilised, human BCMA analyte. The method, boiled down:
as §1
Background: Surface plasmon resonance follows binding to a sensor surface in real time, without labels.

B1: COMBO_Rd4_0.6nM_C04 (antibody, V domains shown)
VH: EVQLLESGGGLVQPGGSLRLSCAASGFTFSSYPMSWVRQAPGKGLEWVSAHIGSGGSTYYADSVKGRFTISRDNSKNTLYLQMNSLRAEDTAVYYCARYWPMDSWGQGTLVTVSS
VL: EIVLTQSPGTLSLSPGERATLSCRASQSVSSTYLAWYQQKPGQAPRLLMYDASIRATGIPDRFSGSGSGTDFTLTISRLEPEDFAVYYCQQYQSWPLTFGQGTKVEIK
notes: IgG
In the case of B1, in the assay with Cynomolgus monkey BCMA, the Kd came out at 0.039 nM, the dissociation rate constant (koff) is 0.000137 s⁻¹ and the kon worked out at 3.52e+06 M⁻¹ s⁻¹. For the same molecule, in the assay with Human BCMA, binding was characterised by a dissociation constant (Kd) of 0.015 nM, the koff stood at 0.000158 s⁻¹ and the kon stood at 1.07e+07 M⁻¹ s⁻¹.

B2: COMBO_Rd4_0.6nM_C29 (antibody, V domains shown)
VH: EVQLLESGGGLVQPGGSLRLSCAASGFTFSSYPMSWVRQAPGKGLEWVSAIGGSGGSLPYADSVKGRFTISRDNSKNTLYLQMNSLRAEDTAVYYCARYWPMDIWGQGTLVTVSS
VL: EIVLTQSPGTLSLSPGERATLSCRASQSVSSSYLAWYQQKPGQAPRLLMYDASIRATGIPDRFSGSGSGTDFTLTISRLEPEDFAVYYCQQYQSWPLTFGQGTKVEIK
notes: IgG
Regarding B2, in the assay with Cynomolgus monkey BCMA, binding was characterised by a dissociation constant (Kd) of 0.084 nM, the koff came out at 0.000336 s⁻¹ and the kon amounted to 4e+06 M⁻¹ s⁻¹. Also, in the assay with Human BCMA, binding was characterised by a dissociation constant (Kd) of 0.019 nM, the koff is 0.000277 s⁻¹ and the kon came to 1.47e+07 M⁻¹ s⁻¹.

B3: COMBO_Rd4_0.6nM_C11 (antibody, V domains shown)
VH: EVQLLESGGGLVQPGGSLRLSCAASGFTFSSYPMSWVRQAPGKGLEWVSAALGSGGSTYYADSVKGRFTISRDNSKNTLYLQMNSLRAEDTAVYYCARYWPMSLWGQGTLVTVSS
VL: EIVLTQSPGTLSLSPGERATLSCRASQSVSVRYLAWYQQKPGQAPRLLMYDASIRATGIPDRFSGSGSGTDFTLTISRLEPEDFAVYYCQQYGSWPITFGQGTKVEIK
notes: IgG
In the assay with Cynomolgus monkey BCMA, B3 gave a Kd of 1.92 nM, a koff of 0.00423 s⁻¹ and a kon of 2.2e+06 M⁻¹ s⁻¹. In the assay with Human BCMA, this molecule registered a Kd of 0.207 nM, a koff of 0.00106 s⁻¹ and a kon of 5.11e+06 M⁻¹ s⁻¹.

B4: COMBO_Rd4_0.6nM_C20 (antibody, V domains shown)
VH: EVQLLESGGGLVQPGGSLRLSCAASGFTFSSYPMSWVRQAPGKGLEWVSAIGGSGGSLPYADSVKGRFTISRDNSKNTLYLQMNSLRAEDTAVYYCARYWPMDSWGQGTLVTVSS
VL: EIVLTQSPGTLSLSPGERATLSCRASQSVSYLYLAWYQQKPGQAPRLLMYDASIRATGIPDRFSGSGSGTDFTLTISRLEPEDFAVYYCQQYMEWPLTFGQGTKVEIK
notes: IgG
In the assay with Cynomolgus monkey BCMA, B4 returned a Kd of 0.092 nM, a koff of 0.000284 s⁻¹ and a kon of 3.09e+06 M⁻¹ s⁻¹. For the same molecule, in the assay with Human BCMA, the Kd is 0.019 nM, the koff stood at 0.000146 s⁻¹ and the kon turned out to be 7.65e+06 M⁻¹ s⁻¹.

B5: COMBO_Rd4_0.6nM_C09 (antibody, V domains shown)
VH: EVQLLESGGGLVQPGGSLRLSCAASGFTFSSYPMSWVRQAPGKGLEWVSAIGGSGGSLPYADSVKGRFTISRDNSKNTLYLQMNSLRAEDTAVYYCARYWPMDIWGQGTLVTVSS
VL: EIVLTQSPGTLSLSPGERATLSCRASQSVSSTYLAWYQQKPGQAPRLLMYDASIRATGIPDRFSGSGSGTDFTLTISRLEPEDFAVYYCQQYQEWPLTFGQGTKVEIK
notes: IgG
In the assay with Cynomolgus monkey BCMA, B5 displayed a Kd of 0.092 nM, a koff of 0.000346 s⁻¹ and a kon of 3.77e+06 M⁻¹ s⁻¹. In the assay with Human BCMA, this molecule had a Kd of 0.031 nM, a koff of 0.000319 s⁻¹ and a kon of 1.04e+07 M⁻¹ s⁻¹.

B6: COMBO_Rd4_0.6nM_C14 (antibody, V domains shown)
VH: EVQLLESGGGLVQPGGSLRLSCAASGFTFSSYPMSWVRQAPGKGLEWVSAIGGSGGSLPYADSVKGRFTISRDNSKNTLYLQMNSLRAEDTAVYYCARYWPMDIWGQGTLVTVSS
VL: EIVLTQSPGTLSLSPGERATLSCRASQSVSALYLAWYQQKPGQAPRLLMYDASIRATGIPDRFSGSGSGTDFTLTISRLEPEDFAVYYCQQYYGWPLTFGQGTKVEIK
notes: IgG
In the assay with Cynomolgus monkey BCMA, B6 registered a Kd of 0.185 nM, a koff of 0.000645 s⁻¹ and a kon of 3.48e+06 M⁻¹ s⁻¹. In the assay with Human BCMA, this molecule returned a Kd of 0.038 nM, a koff of 0.000328 s⁻¹ and a kon of 8.66e+06 M⁻¹ s⁻¹.

B7: COMBO_Rd4_6nM_C07 (antibody, V domains shown)
VH: EVQLLESGGGLVQPGGSLRLSCAASGFTFSSYPMSWVRQAPGKGLEWVSAIGGSGGSLPYADSVKGRFTISRDNSKNTLYLQMNSLRAEDTAVYYCARYWPMADWGQGTLVTVSS
VL: EIVLTQSPGTLSLSPGERATLSCRASQPISSSYLAWYQQKPGQAPRLLMYDASIRATGIPDRFSGSGSGTDFTLTISRLEPEDFAVYYCQQYQGWPLTFGQGTKVEIK
notes: IgG
As for B7, in the assay with Cynomolgus monkey BCMA, the Kd was 0.237 nM, the koff came out at 0.000934 s⁻¹ and the kon turned out to be 3.94e+06 M⁻¹ s⁻¹. For the same molecule, in the assay with Human BCMA, binding was characterised by a dissociation constant (Kd) of 0.035 nM, the off-rate constant (koff) is 0.000371 s⁻¹ and the kon was determined as 1.05e+07 M⁻¹ s⁻¹.

B8: COMBO_Rd4_0.6nM_C17 (antibody, V domains shown)
VH: EVQLLESGGGLVQPGGSLRLSCAASGFTFSSYPMSWVRQAPGKGLEWVSAIGGSGGSLPYADSVKGRFTISRDNSKNTLYLQMNSLRAEDTAVYYCARYWPMDIWGQGTLVTVSS
VL: EIVLTQSPGTLSLSPGERATLSCRASQGISSTYLAWYQQKPGQAPRLLMYDASIRATGIPDRFSGSGSGTDFTLTISRLEPEDFAVYYCQQYAYWPLTFGQGTKVEIK
notes: IgG
Regarding B8, in the assay with Cynomolgus monkey BCMA, the Kd is 0.33 nM, the koff came to 0.00101 s⁻¹ and the kon was found to be 3.06e+06 M⁻¹ s⁻¹. Moreover, in the assay with Human BCMA, binding was put at a Kd of 0.092 nM, the koff stood at 0.000801 s⁻¹ and the kon was 8.68e+06 M⁻¹ s⁻¹.

B9: COMBO_Rd4_0.6nM_C23 (antibody, V domains shown)
VH: EVQLLESGGGLVQPGGSLRLSCAASGFTFSSYPMSWVRQAPGKGLEWVSALFGSGGSTYYADSVKGRFTISRDNSKNTLYLQMNSLRAEDTAVYYCARYWPMDSWGQGTLVTVSS
VL: EIVLTQSPGTLSLSPGERATLSCRPRQSVSSSYLAWYQQKPGQAPRLLMYDASIRATGIPDRFSGSGSGTDFTLTISRLEPEDFAVYYCQQYQDWPLTFGQGTKVEIK
notes: IgG
In the assay with Cynomolgus monkey BCMA, B9 gave a Kd of 0.189 nM, a koff of 0.000531 s⁻¹ and a kon of 2.81e+06 M⁻¹ s⁻¹. In the assay with Human BCMA, this molecule came in with a Kd of 0.028 nM, a koff of 0.00021 s⁻¹ and a kon of 7.39e+06 M⁻¹ s⁻¹.

B10: COMBO_Rd4_0.6nM_C30 (antibody, V domains shown)
VH: EVQLLESGGGLVQPGGSLRLSCAASGFTFSSYPMSWVRQAPGKGLEWVSAIGGSGGSTYYADSVKGRFTISRDNSKNTLYLQMNSLRAEDTAVYYCARYWPMDSWGQGTLVTVSS
VL: EIVLTQSPGTLSLSPGERATLSCRASQSVSYMYLAWYQQKPGQAPRLLIYDASIRATGIPDRFSGSGSGTDFTLTISRLEPEDFAVYYCQQYKSWPLTFGQGTKVEIK
notes: IgG
In the assay with Cynomolgus monkey BCMA, B10 registered a Kd of 0.481 nM, a koff of 0.000808 s⁻¹ and a kon of 1.68e+06 M⁻¹ s⁻¹. Moreover, in the assay with Human BCMA, the Kd was 0.065 nM, the koff came out at 0.000282 s⁻¹ and the kon was determined as 4.35e+06 M⁻¹ s⁻¹.

B11: COMBO_Rd4_6nM_C09 (antibody, V domains shown)
VH: EVQLLESGGGLVQPGGSLRLSCAASGFTFSSYPMSWVRQAPGKGLEWVSAIFASGGSTYYADSVKGRFTISRDNSKNTLYLQMNSLRAEDTAVYYCARYWPMDSWGQGTLVTVSS
VL: EIVLTQSPGTLSLSPGERATLSCRASQSVSAQYLAWYQQKPGQAPRLLMYDASIRATGIPDRFSGSGSGTDFTLTISRLEPEDFAVYYCQQYQAWPLTFGQGTKVEIK
notes: IgG
In the assay with Cynomolgus monkey BCMA, B11 came in with a Kd of 0.134 nM, a koff of 0.000318 s⁻¹ and a kon of 2.37e+06 M⁻¹ s⁻¹. In addition, in the assay with Human BCMA, the affinity, expressed as Kd, was 0.016 nM; the koff is 0.000143 s⁻¹; the kon came out at 8.85e+06 M⁻¹ s⁻¹.

B12: COMBO_Rd4_0.6nM_C05 (antibody, V domains shown)
VH: EVQLLESGGGLVQPGGSLRLSCAASGFTFSSYAMNWVRQAPGKGLEWVSAIGGSGGSTYYADSVKGRFTISRDNSKNTLYLQMNSLRAEDTAVYYCARYWPMSLWGQGTLVTVSS
VL: EIVLTQSPGTLSLSPGERATLSCRASQSVSSTYLAWYQQKPGQAPRLLMYDASIRATGIPDRFSGSGSGTDFTLTISRLEPEDFAVYYCQQYMSWPLTFGQGTKVEIK
notes: IgG
B12: in the assay with Cynomolgus monkey BCMA, the Kd worked out at 0.886 nM, the koff stood at 0.00172 s⁻¹ and the kon is 1.94e+06 M⁻¹ s⁻¹. Moreover, in the assay with Human BCMA, the Kd turned out to be 0.115 nM, the koff was 0.000497 s⁻¹ and the kon was determined as 4.32e+06 M⁻¹ s⁻¹.

B13: COMBO_Rd4_6nM_C10 (antibody, V domains shown)
VH: EVQLLESGGGLVQPGGSLRLSCAASGFTFSSYPMSWVRQAPGKGLEWVSAIGGSGGSIHYADSVKGRFTISRDNSKNTLYLQMNSLRAEDTAVYYCARYWPMDSWGQGTLVTVSS
VL: EIVLTQSPGTLSLSPGERATLSCRASQSVSSSYWGWYQQKPGQAPRLLMYDASIRATGIPDRFSGSGSGTDFTLTISRLEPEDFAVYYCQQYQCWPLTFGQGTKVEIK
notes: IgG
In the assay with Cynomolgus monkey BCMA, B13 displayed a Kd of 0.105 nM, a koff of 0.00016 s⁻¹ and a kon of 1.52e+06 M⁻¹ s⁻¹. In the assay with Human BCMA, this molecule gave a Kd of 0.018 nM, a koff of 9.72e-05 s⁻¹ and a kon of 5.47e+06 M⁻¹ s⁻¹.

B14: COMBO_Rd4_6nM_C02 (antibody, V domains shown)
VH: EVQLLESGGGLVQPGGSLRLSCAASGFTFSSYAMNWVRQAPGKGLEWVSAISDSGGFVYYADSVKGRFTISRDNSKNTLYLQMNSLRAEDTAVYYCARYWPMDSWGQGTLVTVSS
VL: EIVLTQSPGTLSLSPGERATLSCRASQSVSSSYLAWYQQKPGQAPRLLMYDASIRATGIPDRFSGSGSGTDFTLTISRLEPEDFAVYYCQQYEFWPLTFGQGTKVEIK
notes: IgG
In the assay with Cynomolgus monkey BCMA, B14 came in with a Kd of 1.71 nM, a koff of 0.00136 s⁻¹ and a kon of 795000 M⁻¹ s⁻¹. In the assay with Human BCMA, binding was characterised by a dissociation constant (Kd) of 0.422 nM, the koff stood at 0.000443 s⁻¹ and the kon was 1.05e+06 M⁻¹ s⁻¹.

B15: COMBO_Rd4_6nM_C08 (antibody, V domains shown)
VH: EVQLLESGGGLVQPGGSLRLSCAASGFTFSSYPMSWVRQAPGKGLEWVSAIGGSGTWTYYADSVKGRFTISRDNSKNTLYLQMNSLRAEDTAVYYCARYWPMDSWGQGTLVTVSS
VL: EIVLTQSPGTLSLSPGERATLSCRASQSVSSSYLAWYQQKPGQAPRLLMYDASIRATGIPDRFSGSGSGTDFTLTISRLEPEDFAVYYCQQYQKWPLTFGQGTKVEIK
notes: IgG
In the assay with Cynomolgus monkey BCMA, B15 came in with a Kd of 0.14 nM, a koff of 0.000428 s⁻¹ and a kon of 3.06e+06 M⁻¹ s⁻¹. In the assay with Human BCMA, the equilibrium dissociation constant (Kd) is 0.019 nM, the off-rate (koff) amounted to 0.000169 s⁻¹ and the kon turned out to be 8.99e+06 M⁻¹ s⁻¹.
